Values quoted from earlier work as cited in PMC2913173.

Target: Bcl-2 (Homo sapiens) (UniProt P10415)
Test: fluorescence polarization

Sequence of Bcl-2 (Homo sapiens) (P10415 whole entry): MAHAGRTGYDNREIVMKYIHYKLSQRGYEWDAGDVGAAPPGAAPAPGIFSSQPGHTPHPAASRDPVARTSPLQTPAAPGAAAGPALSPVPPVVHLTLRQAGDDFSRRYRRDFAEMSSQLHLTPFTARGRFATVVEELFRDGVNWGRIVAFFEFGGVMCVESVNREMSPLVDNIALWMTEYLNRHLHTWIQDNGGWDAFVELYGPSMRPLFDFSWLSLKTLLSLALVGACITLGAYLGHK

Bak 72-87 (from UniProt Q16611)
Kd: 1600 nM
